As a reminder, the Kd is the free concentration of one partner at which half of the binding sites on the other are occupied at equilibrium, for simple one-to-one binding. A lower Kd goes with tighter binding. Broadly, the koff is a measure of how fast the partners let go of each other. Broadly, the kon is the second-order rate constant of association.

Three molecules from US20200399358A1 (Sanofi, published 2020) can be followed below.

Test [1] concerns the target T1, murine TGF-β2 (mouse, UniProt P27090 303-414).
T1 sequence (looked up): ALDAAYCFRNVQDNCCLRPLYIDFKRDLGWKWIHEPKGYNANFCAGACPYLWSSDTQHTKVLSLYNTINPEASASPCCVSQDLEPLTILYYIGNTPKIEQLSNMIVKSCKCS
Kind of test: cell-based or functional assay.

Test [2] has as its target T2, human TGF-β2 (human, UniProt P61812 303-414).
T2 sequence (looked up): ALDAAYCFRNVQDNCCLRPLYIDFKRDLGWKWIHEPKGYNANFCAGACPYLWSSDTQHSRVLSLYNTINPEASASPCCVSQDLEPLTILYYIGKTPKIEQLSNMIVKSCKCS
Put plainly: cell-based or functional assay.

For test [3], the target named is T3, murine TGF-β1 (mouse, UniProt P04202 279-390). Put plainly: cell-based or functional assay.
In test [4] the target is T4, human TGF-β1 (human, UniProt P01137 279-390). Put plainly: cell-based or functional assay.
Test [5] deals with T2, human TGF-β2. Kind of test: SPR (Biacore T200), Ab1 injected over immobilized TGF-β homodimer, 1:1 model. The method, then:
(§1) The affinity of Ab1 for all human and murine TGF-β isoforms was determined by surface plasmon resonance on a Biacore T200 Biosensor instrument (GE Healthcare) using a dextran-coated carboxy-methylated (CM5) series S chip. Ab1 at a series of concentrations (1.11, 3.33, 10, and 30 nM) was injected onto immobilized recombinant TGF-β to measure the binding interaction in real time. The TGF-β homodimers were immobilized at a low density to reduce avidity effects. Injections were performed in triplicate and the binding assay was repeated three times. The data from the kinetic experiments were processed using the Biacore T200 Biaevaluation v2.0 software. Resulting sensorgrams were zeroed, aligned, double referenced, and cropped for curve fitting analysis using a 1:1 binding model to determine association rate constant (kₐ), dissociation rate constant (kd), and equilibrium dissociation constant (KD).
A general note: Surface plasmon resonance follows binding to a sensor surface in real time, without labels.

The target of test [6] is T5, human TGF-β3 (human, UniProt P10600 301-412).
T5 construct: mature; Produced internally; Human protein was measured; also called Human and Murine TGF-β3
T5 sequence (looked up): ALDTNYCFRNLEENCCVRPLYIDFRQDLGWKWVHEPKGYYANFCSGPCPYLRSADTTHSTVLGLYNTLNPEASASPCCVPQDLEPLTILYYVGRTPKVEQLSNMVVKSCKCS
The description is as above. The protocol: as §1

The target in test [7] is T3, murine TGF-β1. The test is described as above. The protocol: as §1
For test [8], the target named is T1, murine TGF-β2. Described as above. The method, then: as §1
In test [9] the target is T4, human TGF-β1. The description is as above. The protocol: as §1
Test [10] concerns the target T5, human TGF-β3. Put plainly: cell-based or functional assay.
Test [11] concerns the target T4, human TGF-β1. Put plainly: cell-based or functional assay. The source holds these as a separate data set.

T4 sequence (P01137 279-390 limits assumed): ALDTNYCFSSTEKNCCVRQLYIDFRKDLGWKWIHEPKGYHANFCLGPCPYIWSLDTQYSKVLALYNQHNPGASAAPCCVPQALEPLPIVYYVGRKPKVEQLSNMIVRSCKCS
T3 sequence (P04202 279-390 limits assumed): as the sequence (P01137 279-390 limits assumed) above, with A75S counted along it

B1: Ab1 (antibody, human IgG4 S228P, kappa)
heavy: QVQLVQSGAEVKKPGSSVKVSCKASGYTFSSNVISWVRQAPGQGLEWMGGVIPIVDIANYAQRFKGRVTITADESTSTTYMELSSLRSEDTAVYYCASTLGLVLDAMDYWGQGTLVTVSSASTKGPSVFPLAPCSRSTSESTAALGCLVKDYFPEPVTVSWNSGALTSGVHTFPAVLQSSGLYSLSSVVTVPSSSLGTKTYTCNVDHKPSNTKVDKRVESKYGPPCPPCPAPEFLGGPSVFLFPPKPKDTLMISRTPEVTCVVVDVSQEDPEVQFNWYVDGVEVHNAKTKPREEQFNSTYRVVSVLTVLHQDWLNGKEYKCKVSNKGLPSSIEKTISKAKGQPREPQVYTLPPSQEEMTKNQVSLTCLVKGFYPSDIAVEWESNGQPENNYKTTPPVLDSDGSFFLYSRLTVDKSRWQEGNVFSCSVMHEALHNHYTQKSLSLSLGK
light: ETVLTQSPGTLSLSPGERATLSCRASQSLGSSYLAWYQQKPGQAPRLLIYGASSRAPGIPDRFSGSGSGTDFTLTISRLEPEDFAVYYCQQYADSPITFGQGTRLEIKRTVAAPSVFIFPPSDEQLKSGTASVVCLLNNFYPREAKVQWKVDNALQSGNSQESVTEQDSKDSTYSLSSTLTLSKADYEKHKVYACEVTHQGLSSPVTKSFNRGEC
notes: Human IgG4 with proline at position 228 (EU numbering); also called anti-TGF-β antibody Ab1
As to B1, the “EC50 (read off the curve); neutralisation, Mv 1 Lu proliferation with 1 ng/ml TGF-β” value (“EC50 (read off the curve)” below) is roughly 9 µg/mL with murine TGF-β2 [1], roughly 4 µg/mL in the test with human TGF-β2 [2], roughly 0.6 µg/mL in the test with murine TGF-β1 [3] and roughly 2 µg/mL in the test with human TGF-β3 [10]. Also, in the test with human TGF-β1 [4], the “fold change of luciferase activity against isotype control Ab (639440 RLU)” value worked out at 1.45 fold. For the same molecule, the “fold change of luciferase activity against no Ab control (638866 RLU)” value with human TGF-β1 [4] worked out at 1.45 fold. Besides, the equilibrium dissociation constant (Kd) with human TGF-β2 [5] stood at 3 nM; in the test with human TGF-β3 [6] it was 1.65 nM; in the test with murine TGF-β1 [7], 2.8 nM; with murine TGF-β2 [8], 1.88 nM; in the test with human TGF-β1 [9], 1.48 nM. Besides, the off-rate constant (koff) with human TGF-β2 [5] amounted to 0.000823 s⁻¹; in the test with human TGF-β3 [6], 0.000372 s⁻¹; with murine TGF-β1 [7] it was 0.000835 s⁻¹; with murine TGF-β2 [8] it was 0.000645 s⁻¹; with human TGF-β1 [9], 0.000343 s⁻¹. The association rate constant (kon) in the test with human TGF-β2 [5] was 286000 M⁻¹ s⁻¹; with human TGF-β3 [6], 223000 M⁻¹ s⁻¹; in the test with murine TGF-β1 [7], 298000 M⁻¹ s⁻¹; in the test with murine TGF-β2 [8] it was 348000 M⁻¹ s⁻¹; with human TGF-β1 [9], 311000 M⁻¹ s⁻¹.

B2: fresolimumab (antibody, human IgG4, kappa)
heavy: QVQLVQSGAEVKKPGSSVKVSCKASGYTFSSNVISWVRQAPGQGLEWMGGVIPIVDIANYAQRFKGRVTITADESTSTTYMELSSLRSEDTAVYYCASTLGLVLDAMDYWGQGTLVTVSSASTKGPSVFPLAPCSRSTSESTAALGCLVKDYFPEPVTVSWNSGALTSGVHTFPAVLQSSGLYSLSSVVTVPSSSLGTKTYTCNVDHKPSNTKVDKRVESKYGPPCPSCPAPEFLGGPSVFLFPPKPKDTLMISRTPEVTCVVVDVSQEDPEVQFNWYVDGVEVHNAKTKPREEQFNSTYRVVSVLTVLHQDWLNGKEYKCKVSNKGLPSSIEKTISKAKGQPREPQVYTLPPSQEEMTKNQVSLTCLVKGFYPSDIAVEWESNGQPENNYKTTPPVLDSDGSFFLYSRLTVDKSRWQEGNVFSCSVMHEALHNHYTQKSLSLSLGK
light: ETVLTQSPGTLSLSPGERATLSCRASQSLGSSYLAWYQQKPGQAPRLLIYGASSRAPGIPDRFSGSGSGTDFTLTISRLEPEDFAVYYCQQYADSPITFGQGTRLEIKRTVAAPSVFIFPPSDEQLKSGTASVVCLLNNFYPREAKVQWKVDNALQSGNSQESVTEQDSKDSTYSLSSTLTLSKADYEKHKVYACEVTHQGLSSPVTKSFNRGEC
Take B2: the “EC50 (read off the curve)” value is roughly 9 µg/mL with murine TGF-β2 [1], roughly 5 µg/mL with human TGF-β2 [2], roughly 0.6 µg/mL with murine TGF-β1 [3] and roughly 2 µg/mL in the test with human TGF-β3 [10].

B3: 1D11 (antibody, mouse IgG1, kappa, V domains shown)
VH: HVQLQQSGPELVRPGASVKLSCKASGYIFITYWMNWVKQRPGQGLEWIGQIFPASGSTNYNEMFEGKATLTVDTSSSTAYMQLSSLTSEDSAVYYCARGDGNYALDAMDYWGQGTSVTVSS
VL: NIVLTQSPASLAVSLGQRATISCRASESVDSYGNSFMHWYQQKSGQPPKLLIYLASNLESGVPARFSGSGSRTDFTLTIDPVEADDAATYYCQQNNEDPLTFGAGTKLELKR
B3: the “EC50 (read off the curve)” value in the test with human TGF-β2 [2] was roughly 6 µg/mL; with murine TGF-β1 [3], roughly 4 µg/mL; with human TGF-β1 [11] it was roughly 7 µg/mL; in the test with human TGF-β3 [10], roughly 0.4 µg/mL.
